Changes are numbered by the printed parent chain. Names and notes keep the numbering of the source.
B1: 2 × 10 kDa PEG-NBN (ligand)
chain: AGTRSSRARATDARGCRLRSQLVPVSALGLGHSSDELIRFRFCSGSCRRARSPHDLSLASLLGAGALRSPPGSRPISQPCCRPTRYEAVSFMDVNSTWRTVDHLSATACGCLG
modifications: 10 kDa PEG on the amino-terminal amino acid of each chain (Table 8: 1, 1)
B2: wild-type rat neublastin NBN113 (E. coli derived) (ligand)
chain: B1 chain
B3: 1 × 20 kDa Branched PEG-NBN (ligand)
chain: B1 chain
modifications: one 20 kDa branched PEG on the amino-terminal amino acid of one of the two chains (Table 8: 1)
B4: 2 × 20 kDa PEG-NBN (ligand)
chain: B1 chain
modifications: 20 kDa PEG on the amino-terminal amino acid of each chain (Table 8: 1, 1)
B5: 2 × 5 kDa PEG-NBN (ligand)
chain: B1 chain
modifications: 5 kDa PEG on the amino-terminal amino acid of each chain (Table 8: PEGylated amino acids 1, 1)
B6: 3 × 10 kDa PEG-WT/N95K-NBN106 (ligand)
chain 1: ARATDARGCRLRSQLVPVSALGLGHSSDELIRFRFCSGSCRRARSPHDLSLASLLGAGALRSPPGSRPISQPCCRPTRYEAVSFMDVNSTWRTVDHLSATACGCLG
chain 2: B6 chain 1 with N88K
modifications: 10 kDa PEG on the amino terminus and on Lys95 (Table 8, for the dimer: 1, 1, 95); 10 kDa PEG on the amino terminus (Table 8, for the dimer: 1, 1, 95)
B7: 4 × 5 kDa PEG NBN106-N95K (ligand)
chain: B6 chain 1 with N88K
modifications: 5 kDa PEG on the amino terminus and on Lys95 of each chain (Table 8: 1, 1, 95, 95)
B8: 3 × 10 kDa PEG NBN106-N95K (ligand)
chain: B6 chain 1 with N88K
modifications: three 10 kDa PEG per dimer: both amino termini and one Lys95 (Table 8: 1, 1, 95)
B9: 4 × 10 kDa PEG NBN106-N95K (ligand)
chain: B6 chain 1 with N88K
modifications: 10 kDa PEG on the amino terminus and on Lys95 of each chain (Table 8: 1, 1, 95, 95)
B10: 3(,4) × 10 kDa PEG NBN106-N95K (ligand)
chain: B6 chain 1 with N88K
modifications: 10 kDa SPA-PEG at the amino termini and Lys95, average 3.3 PEG moieties per dimer (Table 8: 1, 1, 95 (,95)); mixture of 2, 3 and 4 PEG adducts
B11: 1 × 20 kDa PEG-NBN104 (CHO) (ligand)
chain: AAGARGCRLRSQLVPVRALGLGHRSDELVRFRFCSGSCRRARSPHDLSLASLLGAGALRPPPGSRPVSQPCCRPTRYEAVSFMDVNSTWRTVDRLSATACGCLG
modifications: one 20 kDa PEG on the amino-terminal amino acid of one chain (Table 8: 1); glycosylated at amino acid 95 of each chain (95, 95)
B12: 2 × 20 kDa PEG-NBN104 (CHO) (ligand)
chain: B11 chain
modifications: 20 kDa PEG on the amino-terminal amino acid of each chain (Table 8: 1, 1); glycosylated at amino acid 95 of each chain (95, 95)
B13: NBN104 (CHO) (ligand)
chain: B11 chain
modifications: glycosylated at amino acid 95 of each chain (Table 8: 95, 95; numbering of SEQ ID NO:1)

Molecular target: T1, c-Ret (RET receptor tyrosine kinase) on NB41A3-mRL3 cells (UniProt P35546 29-1115, limits assumed)
T1 sequence (P35546 29-1115 limits assumed): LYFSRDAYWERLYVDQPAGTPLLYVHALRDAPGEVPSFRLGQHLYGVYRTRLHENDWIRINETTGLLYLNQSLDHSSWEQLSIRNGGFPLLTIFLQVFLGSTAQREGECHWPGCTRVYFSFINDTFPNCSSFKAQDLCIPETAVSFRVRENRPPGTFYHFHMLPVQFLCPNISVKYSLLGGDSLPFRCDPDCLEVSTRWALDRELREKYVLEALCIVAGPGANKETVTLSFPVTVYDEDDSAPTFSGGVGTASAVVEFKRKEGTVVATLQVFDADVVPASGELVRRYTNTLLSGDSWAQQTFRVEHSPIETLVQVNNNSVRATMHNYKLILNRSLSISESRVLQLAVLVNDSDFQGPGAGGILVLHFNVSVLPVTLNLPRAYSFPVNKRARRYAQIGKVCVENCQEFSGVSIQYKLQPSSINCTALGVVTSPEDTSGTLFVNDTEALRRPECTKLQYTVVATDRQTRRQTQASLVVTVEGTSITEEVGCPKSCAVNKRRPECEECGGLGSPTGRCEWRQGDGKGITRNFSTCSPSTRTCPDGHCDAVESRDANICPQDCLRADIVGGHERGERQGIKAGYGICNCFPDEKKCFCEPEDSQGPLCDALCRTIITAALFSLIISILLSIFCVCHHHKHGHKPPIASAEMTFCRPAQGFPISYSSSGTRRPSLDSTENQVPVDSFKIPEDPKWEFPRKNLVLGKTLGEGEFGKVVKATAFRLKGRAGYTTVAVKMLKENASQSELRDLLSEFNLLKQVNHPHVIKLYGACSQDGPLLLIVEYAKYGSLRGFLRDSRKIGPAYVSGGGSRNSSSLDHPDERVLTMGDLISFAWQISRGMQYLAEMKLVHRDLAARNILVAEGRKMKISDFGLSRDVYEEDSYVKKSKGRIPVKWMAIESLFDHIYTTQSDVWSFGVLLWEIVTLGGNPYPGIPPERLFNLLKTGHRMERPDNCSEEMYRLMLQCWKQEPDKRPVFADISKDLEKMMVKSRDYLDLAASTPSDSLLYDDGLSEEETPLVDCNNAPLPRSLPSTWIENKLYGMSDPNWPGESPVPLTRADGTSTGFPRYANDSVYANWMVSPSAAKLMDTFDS
Test: cell-based or functional assay

| Binder | KIRA:~ EC50 [nM] | KIRA:~ Max Efficacy vs WT [%] |
| --- | --- | --- |
| B1 | ~0.2 | ~72 |
| B2 | – | ~100 |
| B3 | ~0.2 | ~83 |
| B4 | ~0.6 | ~80 |
| B5 | ~0.2 | ~105 |
| B6 | ~0.7 | ~115 |
| B7 | ~1 | ~80 |
| B8 | ~0.8 | ~100 |
| B9 | ~11 | > 80 |
| B10 | ~1.6 | ~90 |

Molecular target: c-Ret (RET receptor tyrosine kinase) on NB41A3-mRL3 cells (UniProt P35546)
Sequence (P35546 29-1115 limits assumed): as above
Test: cell-based or functional assay

| Binder | KIRA:~ EC50 [nM] | KIRA:~ Max Efficacy vs WT [%] |
| --- | --- | --- |
| B11 | 0.3 | 110 |
| B12 | 1 | 105 |
| B13 | 0.7 | 90 |

Molecular target: T1, c-Ret (RET receptor tyrosine kinase) on …
Test: cell-based or functional assay
Remark: another data set of the same source

| Binder | potency in the KIRA ELISA relative to wild-type NBN113 [fold less potent] |
| --- | --- |
| B9 | ~10 |

Reference: patent publication US20080306212A1 (Biogen, published 2008)
